Laboratory results taken from publication PMC7891324.

Target: microtubules assembled from highly purified (MAP-free) porcine brain tubulin (porcine) (UniProt P02550)
Assay: co-sedimentation; MTs assembled from 25 µM PC-purified (MAP-free) porcine brain tubulin in PEM (100 mM Pipes pH 6.8, 2 mM EGTA, 1 mM MgCl2) with 1 mM GTP, 10% glycerol, 1 mM DTT, 0.5% Triton X-100, 1 h 37°C; 2.5 µM recombinant plectin fragment added for 60 min; 45 000 g 30 min 37°C; supernatant and pellet by SDS-PAGE, Coomassie, densitometry

Row | percent co-sedimented with MTs [%] | Substance
1 | 36.5 | plectin fragment P2(2α3α)-8 (exons 2(2α3α)-8), untagged (domain or fragment)
2 | 52 | plectin fragment P1c(2α3α)-8 (exons 1c(2α3α)-8), untagged (domain or fragment)
